Data reported in article PMC12627087, “mRNA delivery of circumsporozoite protein epitope-based malaria vaccines induces protection in a mouse model” (NPJ Vaccines, 2025).

B1: P15 24mer (other)
chain: DNEKLRKPKHKKLKQLSKDIIKLLNEQVNKEMQSSNLYMSMSSWCYTHSLDGAGLFLFDHAAEEYEHAKKLIIFLNENNVPVNLTSISAPEHNFTGLTQIFQKAYEHEQNISESINNITDHAIKSKDHATFNFLQWYVAEQHEEEVLFKDILDKIELIGNENHGLYLADQYVKGIAKSRKS
modifications: glycosylated (engineered glycosylation sites)
notes: Plasmodium falciparum circumsporozoite protein (PfCSP), strain 3D7; Self-assembling ferritin nanoparticle; cloned into pHLsec between the leader and a double stop codon (AgeI/KpnI); source: FreeStyle 293 F cells, transfected, purified (snowdrop lectin agarose, Superose 6 SEC); copies: 24
B2: P2 24mer (other)
chain: SNTRVLNELNYDNAGLSKDIIKLLNEQVNKEMQSSNLYMSMSSWCYTHSLDGAGLFLFDHAAEEYEHAKKLIIFLNENNVPVNLTSISAPEHNFTGLTQIFQKAYEHEQNISESINNITDHAIKSKDHATFNFLQWYVAEQHEEEVLFKDILDKIELIGNENHGLYLADQYVKGIAKSRKS
modifications: glycosylated (engineered glycosylation sites)
notes: as for B1
B3: J3 60mer (other)
chain: KLKQPADGNPDPNANPNVDPNANPNVDPNANPNVDPGSGNGTGGSMQIYEGKLTAEGLRFGIVASRANHALVDRLVEGAIDAIVRHGGREEDITLVRVCGSWEIPVAAGELARKENISAVIAIGVLCRGATPSFDYIASEVSKGLADLSLELRKPITFGVITADTLEQAIEAAGTCHGNKGWEAALCAIEMANLFKSLRGGSNGTGGSGGSNGT
modifications: glycosylated (engineered glycosylation sites)
notes: Plasmodium falciparum circumsporozoite protein (PfCSP), strain 3D7; J3, full-length junctional peptide beginning with Region I; linker between the peptide and lumazine synthase; C-terminal extension with two added glycosylation sites; Self-assembling lumazine synthase nanoparticle; cloned into pHLsec between the leader and a double stop codon (AgeI/KpnI); also called peptide J3-60mer; source: …
B4: J3R3 24mer (other)
chain: KLKQPADGNPDPNANPNVDPNANPNVDPNANPNVDPNANPNANPNANPLSKDIIKLLNEQVNKEMQSSNLYMSMSSWCYTHSLDGAGLFLFDHAAEEYEHAKKLIIFLNENNVPVNLTSISAPEHNFTGLTQIFQKAYEHEQNISESINNITDHAIKSKDHATFNFLQWYVAEQHEEEVLFKDILDKIELIGNENHGLYLADQYVKGIAKSRKS
modifications: glycosylated (engineered glycosylation sites)
notes: Plasmodium falciparum circumsporozoite protein (PfCSP), strain 3D7; J3R3, junctional peptide with three added NANP repeats; Self-assembling ferritin nanoparticle; cloned into pHLsec between the leader and a double stop codon (AgeI/KpnI); source: FreeStyle 293 F cells, transfected, purified (snowdrop lectin agarose, Superose 6 SEC); copies: 24
B5: (NANP)6 24mer (other)
chain: NANPNANPNANPNANPNANPNANPLSKDIIKLLNEQVNKEMQSSNLYMSMSSWCYTHSLDGAGLFLFDHAAEEYEHAKKLIIFLNENNVPVNLTSISAPEHNFTGLTQIFQKAYEHEQNISESINNITDHAIKSKDHATFNFLQWYVAEQHEEEVLFKDILDKIELIGNENHGLYLADQYVKGIAKSRKS
modifications: glycosylated (engineered glycosylation sites)
notes: Plasmodium falciparum circumsporozoite protein (PfCSP), strain 3D7; (NANP)6, 24-residue NANP repeat peptide; Self-assembling ferritin nanoparticle; cloned into pHLsec between the leader and a double stop codon (AgeI/KpnI); source: FreeStyle 293 F cells, transfected, purified (snowdrop lectin agarose, Superose 6 SEC); copies: 24
B6: J3R3 60mer (other)
chain: KLKQPADGNPDPNANPNVDPNANPNVDPNANPNVDPNANPNANPNANPGSGNGTGGSMQIYEGKLTAEGLRFGIVASRANHALVDRLVEGAIDAIVRHGGREEDITLVRVCGSWEIPVAAGELARKENISAVIAIGVLCRGATPSFDYIASEVSKGLADLSLELRKPITFGVITADTLEQAIEAAGTCHGNKGWEAALCAIEMANLFKSLRGGSNGTGGSGGSNGT
modifications: glycosylated (engineered glycosylation sites)
notes: Plasmodium falciparum circumsporozoite protein (PfCSP), strain 3D7; J3R3, junctional peptide with three added NANP repeats; linker between the peptide and lumazine synthase; C-terminal extension with two added glycosylation sites; Self-assembling lumazine synthase nanoparticle; cloned into pHLsec between the leader and a double stop codon (AgeI/KpnI); source: FreeStyle 293 F cells, transfected, …
B7: P9 60mer (other)
chain: KQENWYSLKKNSRSLGSGNGTGGSMQIYEGKLTAEGLRFGIVASRANHALVDRLVEGAIDAIVRHGGREEDITLVRVCGSWEIPVAAGELARKENISAVIAIGVLCRGATPSFDYIASEVSKGLADLSLELRKPITFGVITADTLEQAIEAAGTCHGNKGWEAALCAIEMANLFKSLRGGSNGTGGSGGSNGT
modifications: glycosylated (engineered glycosylation sites)
notes: Plasmodium falciparum circumsporozoite protein (PfCSP), strain 3D7; linker between the peptide and lumazine synthase; C-terminal extension with two added glycosylation sites; Self-assembling lumazine synthase nanoparticle; cloned into pHLsec between the leader and a double stop codon (AgeI/KpnI); source: FreeStyle 293 F cells, transfected, purified (snowdrop lectin agarose, Superose 6 SEC); …
B8: P8 60mer (other)
chain: NYYGKQENWYSLKKNGSGNGTGGSMQIYEGKLTAEGLRFGIVASRANHALVDRLVEGAIDAIVRHGGREEDITLVRVCGSWEIPVAAGELARKENISAVIAIGVLCRGATPSFDYIASEVSKGLADLSLELRKPITFGVITADTLEQAIEAAGTCHGNKGWEAALCAIEMANLFKSLRGGSNGTGGSGGSNGT
modifications: glycosylated (engineered glycosylation sites)
notes: as for B7
B9: J2 60mer (other)
chain: KLKQPADGNPDPNANPNVDPNANPNVDPGSGNGTGGSMQIYEGKLTAEGLRFGIVASRANHALVDRLVEGAIDAIVRHGGREEDITLVRVCGSWEIPVAAGELARKENISAVIAIGVLCRGATPSFDYIASEVSKGLADLSLELRKPITFGVITADTLEQAIEAAGTCHGNKGWEAALCAIEMANLFKSLRGGSNGTGGSGGSNGT
modifications: glycosylated (engineered glycosylation sites)
notes: Plasmodium falciparum circumsporozoite protein (PfCSP), strain 3D7; J2, minimal junction peptide beginning with Region I; linker between the peptide and lumazine synthase; C-terminal extension with two added glycosylation sites; Self-assembling lumazine synthase nanoparticle; cloned into pHLsec between the leader and a double stop codon (AgeI/KpnI); also called peptide J2-60mer; short junctional …
B10: J2 24mer (other)
chain: KLKQPADGNPDPNANPNVDPNANPNVDPLSKDIIKLLNEQVNKEMQSSNLYMSMSSWCYTHSLDGAGLFLFDHAAEEYEHAKKLIIFLNENNVPVNLTSISAPEHNFTGLTQIFQKAYEHEQNISESINNITDHAIKSKDHATFNFLQWYVAEQHEEEVLFKDILDKIELIGNENHGLYLADQYVKGIAKSRKS
modifications: glycosylated (engineered glycosylation sites)
notes: Plasmodium falciparum circumsporozoite protein (PfCSP), strain 3D7; J2, minimal junction peptide beginning with Region I; Self-assembling ferritin nanoparticle; cloned into pHLsec between the leader and a double stop codon (AgeI/KpnI); also called peptide J2-24mer; source: FreeStyle 293 F cells, transfected, purified (snowdrop lectin agarose, Superose 6 SEC); copies: 24

Biological target: the molecule itself
Assay: SEC + SEC-MALS + other: negative stain electron microscopy; self-assembly of the protomer into the nanoparticle; Superose 6 10/300 at 0.5 ml/min with DAWN HELEOS II and Optilab T-rEX detectors, glycan mass corrected by protein-conjugate analysis; nsEM at 0.1 mg/ml in HBS, uranyl formate

Protein | binding result
B1 | binds
B2 | binds
B3 | binds
B4 | binds
B5 | binds
B6 | binds
B7 | binds
B8 | binds
B9 | binds
B10 | binds
